# In the supplement of paper PMC10567573:
# B1: WDR41 (parent)
# chain: WTMQAYERNFWDPSPQLDTQQEIK
# B2: GOLPH3 (parent)
# chain: FAPLLDEQYDLATKRVRQLLDLDP
# Variants of: B1
# Test: protein stability index of a GFP-peptide fusion (GPS, HEK-293T) (PSI 1-6); higher = more stable
# Details: c terminus: a fixed tail appended
# 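Also: lentivirally expressed fusions sorted by FACS into six bins by GFP to DsRed ratio, PSI derived from sequencing read proportions per bin multiplied by bin number.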
row,Variant,protein stability index
1,Q4R,1.8
2,Q4V,2.25
3,Q4K,1.5
4,Q4F,2.38
5,Q4E,2.05
6,Q4T,1.95
7,Q4G,3.34
8,Q4C,2.27
9,Q4D,2.26
10,Q4L,2.35
11,Q4P,3.21
12,Q4Y,2.42
13,Q4M,2.92
14,Q4A,2.23
15,Q4H,1.89
16,Q4N,1.67
17,Q4W,1.72
18,Q4I,3.51
19,M3C,1.97
20,M3T,2.86
21,M3L,2.69

row,Variant,protein stability index
1,M3Q,3.07
2,M3E,3.89
3,M3A,2.44
4,M3S,1.79
5,M3G,2.46
6,M3W,2.77
7,M3Y,2.24
8,M3V,3.16
9,M3I,2.14
10,M3K,2.96
11,M3H,2.63
12,M3D,3.96
13,M3F,2.07
14,M3N,2.34
15,A5H,3.47
16,A5F,1.91
17,A5M,2.71
18,A5L,2.66
19,A5C,2.51
20,A5D,3.33
21,A5G,3.53

row,Variant,protein stability index
1,A5I,1.68
2,A5K,2.96
3,A5E,3.65
4,A5N,3.18
5,T2Y,2.16
6,T2H,1.89
7,T2Q,2.89
8,T2S,2
9,T2G,2.93
10,T2F,1.71
11,T2C,2.15
12,T2R,2.91
13,T2A,2.01
14,T2E,3.75
15,T2V,2.14
16,T2M,2.14
17,T2L,1.69
18,T2W,2.15
19,T2I,1.62
20,T2N,2.11
21,T2P,3.82

row,Variant,protein stability index
1,W1Q,4.81
2,W1A,3.77
3,W1K,4.15
4,W1Y,3.58
5,W1R,4.08
6,W1L,3.9
7,W1S,4.51
8,W1T,4.25
9,W1G,4.73
10,W1I,3.35
11,W1F,2.44
12,W1V,3.47
13,W1M,3.77
14,W1D,5.58
15,W1E,4.41
16,W1H,3.13
17,W1C,2.3
18,W1P,4.6
19,W1N,4.46

# Variants of: B2
# Test: as above
# Details: c terminus: a fixed tail appended
row,Variant,protein stability index
1,D23L,2.01
2,D23Y,2.12
3,D23H,1.69
4,D23N,2.85
5,D23K,1.78
6,D23M,1.53
7,D23S,1.85
8,D23W,3.32
9,D23E,1.87
10,D23I,1.62
11,D23V,1.6
12,D23A,2.07
13,D23T,1.94
14,D23C,2.41
15,D23G,2.65
16,D23P,1.8
17,D23R,2.72
18,D23Q,2.11
19,D21W,2.22
20,D21T,1.9
21,D21S,1.95
22,D21H,1.55
23,D21A,1.47
24,D21I,1.45
25,D21R,1.55
26,D21V,2.79

row,Variant,protein stability index
1,D21G,2.29
2,D21M,1.85
3,D21P,1.48
4,D21Y,1.88
5,D21L,2.1
6,D21N,2.12
7,D21Q,2.1
8,D21F,3.68
9,D21E,2.08
10,D21K,1.64
11,A12E,2.66
12,A12F,1.74
13,A12C,1.57
14,A12H,2.43
15,A12V,1.88
16,A12K,1.99
17,A12M,2.8
18,A12S,2.36
19,A12L,1.82
20,A12D,2.72
21,A12I,1.43
22,A12T,2.3
23,A12G,2.12
24,A12Q,2.16
25,A12P,2.04
26,A12R,2.04

row,Variant,protein stability index
1,A12N,2.47
2,Q18E,2.06
3,Q18K,2.18
4,Q18W,2.36
5,Q18T,2.21
6,Q18L,2.52
7,Q18C,1.38
8,Q18S,2.11
9,Q18I,2.34
10,Q18F,2.67
11,Q18M,2.02
12,Q18N,2.2
13,Q18Y,1.74
14,Q18V,2.99
15,Q18H,2.47
16,Q18P,2.04
17,Q18D,2.43
18,Q18A,2.52
19,Q18R,1.44
20,Q18G,2.08
21,K14L,3.14
22,K14W,2.28
23,K14V,1.84
24,K14H,1.99
25,K14I,1.64
26,K14G,1.99

row,Variant,protein stability index
1,K14N,2.02
2,K14S,2
3,K14D,2.94
4,K14T,2.11
5,K14E,2.14
6,K14Q,1.88
7,K14M,1.59
8,K14P,2.29
9,K14R,2.24
10,K14Y,1.97
11,K14F,1.17
12,K14C,2.29
13,K14A,1.76
14,P24M,2
15,P24D,1.87
16,P24N,2.46
17,P24E,2.46
18,P24H,3.6
19,P24F,3.43
20,P24C,2.36
21,P24G,2.28
22,P24Q,2.33
23,P24T,2.3
24,P24S,1.48
25,P24Y,1.45
26,P24R,2.28

row,Variant,protein stability index
1,P24L,2.11
2,P24W,1.29
3,P24I,1.38
4,P24V,2.7
5,P24A,1.81
6,L20Y,1.94
7,L20W,2.11
8,L20A,2.92
9,L20T,2.27
10,L20I,2.59
11,L20E,2.76
12,L20S,2.53
13,L20M,2.3
14,L20G,2.42
15,L20V,1.94
16,L20D,2.34
17,L20C,2.27
18,L20P,3.2
19,L20Q,2.24
20,L20K,2.59
21,L20F,1.83
22,L20H,1.98
23,L20N,2.25
24,L20R,1.91
25,V16P,2.45
26,V16E,3.32

row,Variant,protein stability index
1,V16G,2.75
2,V16H,1.65
3,V16M,1.96
4,V16C,2.09
5,V16W,1.37
6,V16A,2.12
7,V16R,1.82
8,V16Q,2.4
9,V16L,1.51
10,V16S,1.74
11,V16N,2
12,V16I,2.19
13,V16K,1.54
14,V16T,2.59
15,V16Y,2.58
16,V16D,2.02
17,L11P,2.91
18,L11Q,3.52
19,L11N,2.28
20,L11H,2.73
21,L11K,2.56
22,L11G,2.38
23,L11S,2.27
24,L11Y,2.51
25,L11W,2.82
26,L11M,3.03

row,Variant,protein stability index
1,L11T,2.28
2,L11V,2.21
3,L11I,2.36
4,R17I,2.22
5,R17T,2.11
6,R17N,2.83
7,R17K,1.8
8,R17Y,1.74
9,R17D,3.1
10,R17F,1.93
11,R17L,2.13
12,R17G,2.45
13,R17Q,2.77
14,R17C,2.14
15,R17H,1.87
16,R17V,2.03
17,R17A,2.37
18,R17P,2.45
19,R17E,2.41
20,R17M,2.27
21,R17S,2.61
22,T13I,1.6
23,T13F,1.96
24,T13R,1.57
25,T13Y,1.28
26,T13K,2.32

row,Variant,protein stability index
1,T13C,1.54
2,T13Q,1.84
3,T13E,2.56
4,T13N,1.9
5,T13P,2.22
6,T13D,2.92
7,T13M,1.89
8,T13V,2.28
9,T13H,2.18
10,T13A,2.41
11,T13L,2.28
12,T13G,3.19
13,T13S,2.24
14,L19A,2.7
15,L19I,2.46
16,L19Y,1.85
17,L19N,1.89
18,L19S,2.21
19,L19G,2.26
20,L19H,2.09
21,L19D,3.22
22,L19F,1.63
23,L19E,2.58
24,L19W,2.27
25,L19M,1.78
26,L19K,2.14

row,Variant,protein stability index
1,L19T,2.61
2,L19Q,2.24
3,L19C,1.49
4,L19P,2.65
5,L19V,2.33
6,L19R,1.65
7,R15H,2.04
8,R15E,2.43
9,R15P,2.48
10,R15Y,1.51
11,R15K,1.93
12,R15C,2.1
13,R15S,1.8
14,R15Q,2.11
15,R15T,1.76
16,R15A,2.56
17,R15I,2.01
18,R15F,2.06
19,R15W,1.61
20,R15M,1.99
21,R15D,2.73
22,R15V,2.35
23,R15L,2.24
24,R15N,2.3
25,R15G,1.74
26,L22E,3.16

row,Variant,protein stability index
1,L22D,2.75
2,L22R,2.26
3,L22T,2.21
4,L22P,2.06
5,L22G,2.58
6,L22Q,2.5
7,L22Y,2.29
8,L22F,2.61
9,L22K,2.27
10,L22I,2.45
11,L22A,3.04
12,L22H,2.55
13,L22V,2.2
14,L22N,2.46
15,L22C,1.95
16,L22W,1.83
17,L22S,2.29
18,L22M,2.58
